# Experiments:
# RNA:DNA hybrid = test: RNA:DNA unwinding assay; type: biochemical; conditions: 4.79 μM recombinant DDX19A, 1 nM Cy-5-labeled RNA:DNA hybrid, 4 mM ATP, 30°C, 60 min, pH 7.5
# Protocol: RNA:DNA unwinding assay was performed as described ([54]). In brief: RNA:DNA hybrids were annealed in vitro in 5 mM Tris/HCl pH 8.5. The sequence of the top RNA strand was: 5′‐[…]‐3′, and the sequence of the bottom DNA strand was 5′-[…]‐3′. The annealed RNA:DNA hybrid has a 5′ ssDNA overhang and is labeled with Cy-5. Unwinding experiments were carried out at 30°C for 60 min in 30 mM Tris–HCl (pH 7.5), 50 mM NaCl, 5 mM MgCl2, 2 mM DTT, 0.01% NP‐40, 0.1 mg/ml BSA, 4 mM ATP, 1 nM Cy-5‐labeled RNA:DNA hybrid substrate, in the presence of 4.79 μM recombinant DDX19A. The reaction was stopped by the addition of SDS to a final concentration of 0.5% and 20 ng proteinase K (20 mg/ml). The reaction was afterward loaded onto a 10% non-denaturing polyacrylamide gel and analysed using a FusionFX detection system (VILBER).
# [1] = test system: R-loops from NIH/3T3 cell lysate; test: S9.6 antibody IP, co-precipitation of LSD1 and DDX19A; type: cell-based, murine; conditions: NIH/3T3 whole cell lysate, Western blot
# Protocol: 100 μl Dynabeads® Protein G were pre-blocked with 0.5% BSA/PBS for 2 h at 4°C. 10 × 10^6 non-crosslinked NIH/3T3 cells were harvested, washed once in 1× PBS and lysed in 1 ml Cell Lysis Buffer (85 mM KCl, 5 mM HEPES pH 8, 0.5% NP-40, cOmplete™ EDTA-free PIC) for 15 min on ice. Nuclei were collected by spinning 1 min at 15 000 × g, 4°C. The pellet was resuspended in 750 μl RSB buffer (10 mM Tris–HCl pH 7.5, 200 mM NaCl, 2.5 mM MgCl2, cOmplete™ EDTA-free PIC) supplemented with 0.2% sodium-deoxycholate, 0.1% SDS, 0.05% sodium-lauroyl-sarcosinate and 0.5% Triton X-100. Cells were sonicated for 4 min in an EpiShear Probe Sonicator (20 s pulse, 30 s pause, 40%). After taking 5% as input, samples were transferred to a 15 ml falcon tube and diluted 1:4 by addition of 2.3 ml RSB with 0.5% Triton X-100 (RSB+T). The samples were subjected to pre-clearing with 5 μg mouse IgG and 35 μl Dynabeads® Protein G for 1 h at 4°C. Magnetic beads were locked and the supernatant was split into three Eppendorf tubes. For the S9.6 antibody-specificity control, 40 U of RNAse H (NEB) were added to one of the tubes and all samples were incubated for 10 min at 37°C before adding the IP antibodies. The samples were subjected to IP with 4 μg of either the S9.6 antibody or mouse IgG and 32 μl pre-blocked beads per sample. 10 ng RNase A was added to each tube before rotating at 4°C for 2.5 h. […]
molecule,measurement,setting,value
"DDX19A: DEAD-box helicase 19A; recombinant GST-tagged for in vitro tests, endogenous in S9.6 IP (protein, UniProt Q9NUU7 2-478, looked up, GST tag, DEAD-box helicase 19A; recombinant GST-tagged for in vitro tests, endogenous in S9.6 IP) ATP-dependent RNA helicase …: ATDSWALAVDEQEAAVKSMTNLQIKEEKVKADTNGIIKTSTTAEKTDEEEKEDRAAQSLLNKLIRSNLVDNTNQVEVLQRDPNSPLYSVKSFEELRLKPQLLQGVYAMGFNRPSKIQENALPMMLAEPPQNLIAQSQSGTGKTAAFVLAMLSRVEPSDRYPQCLCLSPTYELALQTGKVIEQMGKFYPELKLAYAVRGNKLERGQKISEQIVIGTPGTVLDWCSKLKFIDPKKIKVFVLDEADVMIATQGHQDQSIRIQRMLPRNCQMLLFSATFEDSVWKFAQKVVPDPNVIKLKREEETLDTIKQYYVLCSSRDEKFQALCNLYGAITIAQAMIFCHTRKTASWLAAELSKEGHQVALLSGEMMVEQRAAVIERFREGKEKVLVTTNVCARGIDVEQVSVVINFDLPVDKDGNPDNETYLHRIGRTGRFGKRGLAVNMVDSKHSMNILNRIQEHFNKKIERLDTDDLDEIEKIAN",ability to resolve RNA:DNA hybrids in vitro,RNA:DNA hybrid,confirmed its ability to resolve RNA:DNA hybrids in vitro
same,association with R-loops (co-precipitation with S9.6),[1],strong physical association

# Source: PMC8096265, “A functional LSD1 coregulator screen reveals a novel transcriptional regulatory cascade connecting R-loop homeostasis with epigenetic regulation” (Nucleic Acids Research, 2021)
